From article PMC13028475

Target: FPM13 (Francisella Periplasmic Metalloprotein, 13 kDa), native protein of Francisella novicida (Francisella novicida)
Assay: cryo-EM structure

FPM13 (Francisella Periplasmic Metalloprotein, 13 kDa), native protein of Francisella novicida (natural protein)
stoichiometry N: 18
